B1: NGF127 (ligand)
chain: SSSHPIFHRGEFSVCDSESLWVTDKTTATDIKGKEVMVLGEVNINNSVFKQYFFETKCRDPNPVDSGCRGIDSKHWNSQCKTTQTFVKALTMDGKQAAWRFIRIDTACVCVLSRKAVRRA
B2: NGF1234 (ligand)
chain: SSSHPIFHRGEFSVCDSESLWVTDKTTAIDIKGKEVMVLGEVNINNSVFKQYFFETKCRDPNPVDSGCRGIDSKHWNSQCKTTQTYVKALTMDGKQAAWRFIRIDTACVCVLSRKAVRRA
B3: NGFR3 (ligand)
chain: SSSHPIFHRGEFSVCDSESVWVTDKTTATDIKGKEVMVLGEVNINNSVFKQYFFETKCRDPNPVDSGCRGIDSKHWNSYCKTTQTFVKALTMDGKQAAWRFIRIDTACVCVLSRKAVRRA
B4: NGFR2 (ligand)
chain: SSSHPIFHRGEFSVCDSVSLWVTDKTTATDIKGKEVMVLGEVNINNSVFKQYFFETKCRDPNPVDSGCRGIDSKHWNSYCKTTQTFVKALTMDGKQAAWRFIRIDTACVCVLSRKAVRRA
B5: NGF131 (ligand)
chain: SSSHPIFHRGEFSVCDSVSLWVTDKTTAIDIKGKEVMVLGEVNINNSVFKQYFFETKCRDPNPVDSGCRGIDSKHWNSYCTTTQTYVKALTMDGKQAAWRFIRIDTACVCVLSRKAVRRA
notes: also called NGF31
B6: NGF130 (ligand)
chain: SSSHPIFHRGEFSVCDSVSLWVTDKTTATDIKGKEVMVLGEVNINNSVFKQYFFETKCRDPNPVDSGCRGIDSKHWNSYCTTTQTYVKALTMDGKQAAWRFIRIDTACVCVLSRKAVRRA

Tests used:
[1] = biological target: T1, human trkC receptor immunoadhesin (trkC extracellular domain fused to immunoglobulin constant domains) (human, UniProt Q16288 32-429); assay: competitive displacement of labeled NT-3 from human trkC immunoadhesin, 96-well plate
T1 construct: extracellular domain; not shown: immunoglobulin constant domains

[2] = biological target: T2, human trkA receptor immunoadhesin (trkA extracellular domain fused to immunoglobulin constant domains) (human, UniProt P04629 33-423); assay: competitive displacement of labeled NGF from human trkA immunoadhesin, 96-well plate
T2 construct: extracellular domain; not shown: immunoglobulin constant domains
T2 sequence (P04629 33-423): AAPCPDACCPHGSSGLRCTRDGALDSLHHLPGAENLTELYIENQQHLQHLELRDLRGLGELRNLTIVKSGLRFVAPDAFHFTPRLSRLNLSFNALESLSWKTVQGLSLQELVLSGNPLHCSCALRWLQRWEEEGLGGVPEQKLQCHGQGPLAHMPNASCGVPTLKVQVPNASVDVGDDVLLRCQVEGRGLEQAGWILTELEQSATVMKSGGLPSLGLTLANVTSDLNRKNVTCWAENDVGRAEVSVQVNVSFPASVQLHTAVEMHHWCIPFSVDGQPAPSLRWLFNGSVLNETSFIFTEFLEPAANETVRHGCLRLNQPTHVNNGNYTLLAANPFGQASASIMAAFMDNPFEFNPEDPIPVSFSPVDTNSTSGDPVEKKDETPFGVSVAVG

| Binder | IC50mut/IC50NGF12 [1] [ratio] | IC50mut/IC50NT-3 [1] [ratio] | IC50mut/IC50NGF [2] [ratio] |
| --- | --- | --- | --- |
| B1 | 2.2 | 33 | 1 |
| B2 | 0.3 | 4.9 | 1.3 |
| B3 | 2.5 | 37.2 | 1.6 |
| B4 | 0.7 | 10.5 | 0.9 |
| B5 | 0.2 | 3.3 | 1.1 |
| B6 | 0.3 | 4.5 | 1 |

Source: patent US6365373 (Genentech, dated 2002)
